# Laboratory results: patent publication US20180073026, “NOVEL EXPRESSION REGULATING RNA-MOLECULES AND USES THEREOF” (Universität Wien, published 2018)
# B1: RAP #5713 (ssRNA)
# RNA: GACAACAUGAGAACAGUUCAGCAGCACUA
# Target: RNA polymerase (His6 RNAP; holoenzyme) (Escherichia coli, UniProt P0A7Z4;P0A8V2;P0A8T7;P0A800;P00579 …)
# Experiment: in vitro transcription, reduction of rrnB termination vs Rev #5713, purified RNAP only
# Settings: tags: His6 (Nudler Lab) or holoenzyme from Affymetrix; chain copies: 2,1,1,1,1
# Procedure: Transcription reactions were performed in solution. Wild-type E. coli His6 RNAP (Evgeny Nudler Lab) and wild-type E. coli RNAP Holoenzyme (Affymetrix) were used in the assays. […] Then AUC RNA primer (Dharmacon) was added up to 10 μM together with GTP (25 μM) and ATP (25 μM) followed by incubation at 37° C. for 5 minutes. Next, [α-32P]-CTP (800 Ci/mmol, 2 μl, Hartmann Analytic) was added for another 2 min. To minimize RNA degradation 10 U of RNasin® Ribonuclease Inhibitor (Promega) were added to the reaction. For the reactions with Rho and NusG, the purified transcription factors were added in a concentration of up to 0.5 μM to the transcriptional mixtures where indicated, followed by additional incubation at 37° C. for 5 minutes. Chasing reaction was performed with all four NTPs added to a final concentration of 10-50 μM. To prevent re-initiation, rifampicin (Sigma) was added concurrently at this step to a final concentration of 10 μM. At the indicated time points, an aliquot of chase reaction was quenched with 3× Stop Solution, containing 100 mM EDTA, 8M UREA, 0.025% xylenthianol and 0.025% bromophenol blue. The products were separated by 6% denaturing TBE-PAGE (8M urea). […]
binder,measurement,value
B1,activity,> 2 fold
